From article PMC8581426, “CST6 protein and peptides inhibit breast cancer bone metastasis by suppressing CTSB activity and osteoclastogenesis” (Theranostics, 2021)
Where a SMILES comes first, the peptide text is derived from it. The star is where a group is joined. Cbz = O=C(OCc1ccccc1)*; CHN2 = [N-]=[N+]=C*; tBu = CC(C)(C)*

Columns and labels:
SCP2 cells = assay: SCP2 bone metastasis in mice (intracardiac injection); assay type: in vivo, mouse
Experimental: For bone metastasis study was performed as previously described. Briefly, athymic Balb/c mice were anesthetized and 10^5 cells in 100 μL phosphate-buffered saline (PBS) were injected into the left cardiac ventricle. Peptides were administrated intravenously into the mice (n = 10 per group) at a dose of 1 mg/kg/day. The control mouse group were administered with same volume of peptide solvents. The metastatic burden was measured by bioluminescent imaging (BLI) with a NightOWL II LB983 Imaging System (Berthold). The osteolytic area was analyzed by the SkyScan 1076 In vivo X-ray Microtomograph (Bruker). The sections of hind legs of the mice was used for H&E, TRAP and immunohistochemistry staining.

[1] = system: murine primary bone marrow cells; assay: Osteoclastogenesis of primary bone marrow cells (TRAP staining); assay type: cell-based, mouse; conditions: n = 3 independent experiments; for osteoclast differentiation of primary bone marrow cells: 10 μM inhibitor, Fig. 2F
Experimental: (§1) Primary bone marrow cells were harvested by flushing the cavity of tibia and femur from 5-6 week old Balb/c mice. Erythrocytes were removed by treating cell suspension with the Red Blood Cell Lysing Buffer (R7757, Sigma) for 5 min. The remaining cells were cultured in α-MEM (A1049001, Gibco) supplemented with 10% FBS and 5 ng/ml M-CSF for 12 h. Non-adherent cells were transferred into a 24-well plate and cultured in α-MEM supplemented with 10% FBS, 25 ng/ml M-CSF and 25 ng/ml RANKL for another 5 to 6 days. Cancer cell CM was mixed with α-MEM at a ratio of 1:3. CST6 protein, peptides or other drugs at indicated concentrations were administrated into the culture medium. For assessment of osteoclast differentiation, cells were stained using the Acid Phosphatase TRAP staining kit (387A, Sigma) as previously described. For RAW264.7 osteoclastogenesis assay, 700 cells per well were added into a 96-well plate and cultured in the same medium as shown above except that M-CSF was not essential. 7 ug/ml CST6 antibody (MAB1286, R&D) was used to neutralize recombinant human CST6 in RAW264.7 osteoclastogenesis assay.

RAW264.7 cells [2] = assay: RAW264.7 osteoclastogenesis assay; assay type: cell-based, mouse
Experimental: as §1

SPHK1 = assay: Intracellular SPHK1 protein level in RAW264.7 (Western blot); assay type: cell-based, mouse; conditions: Fig. 3B
Source text: SPHK1 is cleaved by CTSB [20], and more importantly, SPHK1 can negatively regulate osteoclast differentiation by phosphorylating sphingosine into sphingosine-1-phosphate (S1P). Concordantly, we observed that Ctsb knockdown increased SPHK1 expression in primary bone marrow cells (Fig. 3A). […] Similarly, Sphk1 knockdown could also recover osteoclastogenesis of RAW264.7 that was suppressed by the treatment of CST6 recombinant (Fig. 3G, H).

Chronic toxicity assay = assay type: in vivo, mouse; conditions: 10 mg/kg CA-074 for 8 consecutive days, nude mice, n = 9 per group; Fig. S6B
Experimental: […] The body weights of the mice were measured. […] Mice were sacrificed and organs were harvested for weight measurements and H&E staining to observe the pathological changes.

RAW264.7 cells [3] = assay: Internalization of His-tagged CST6 protein by RAW264.7 (Western blot); assay type: cell-based, mouse; conditions: RAW264.7 cultured with CST6-His and various concentrations of Dynasore; Fig. 2K
Experimental: Cathepsins are lysosomal proteases and function only intracellularly in acidic environment. To verify that extracellularly derived CST6 could inhibit the intracellular CTSB activity of osteoclasts, RAW264.7 cells were cultured in the medium containing recombinant CST6 protein and the cell lysates were collected for CTSB activity analysis after phosphate-buffered saline (PBS) washing of the cells. […] Since osteoclasts are active in endocytosis, it is likely that exogenous CST6 is transported into osteoclasts via endocytosis. Indeed, we observed a co-localization of CST6 that entered the cells with the lysosome marker LAMP1 (Fig. S3B). […] Endocytosis inhibition also rescued the CST6-suppressed osteoclastogenesis of RAW264.7 cells (Fig. 2L).

p38 = assay: Phosphorylation of p38 in RAW264.7 (Western blot); assay type: cell-based, mouse
Experimental: To further validate the involvement of p38 signaling in CST6-suppresesed osteoclastogenesis, the p38 inhibitor SB203580 was used to treat RAW264.7 cells that were cultured in cancer cell CM.

[4] = system: RAW264.7 or primary bone marrow-derived osteoclasts; assay: Viability of osteoclasts after CST6 recombinant protein treatment; assay type: cell-based, mouse; conditions: n = 4 independent experiments; Fig. S1E
SCP2/SCP4 tumor cells = assay: Tumor cell growth after CST6 recombinant protein treatment; assay type: cell-based; conditions: 32 nM, n = 4 biological repeats, Fig. S1F
[5] = Pharmacokinetic assay, circulation half-life; assay type: in vivo, mouse; conditions: Balb/c mice, 1 mg/kg intravenous, serum 0.25-4 h, ELISA (CST6 or His-tag), one-phase decay model; n = 4
Experimental: For pharmacokinetic assays, CST6 protein or His-tagged peptides were administrated intravenously into Balb/c mice (n = 4 per group) at a dose of 1 mg/kg. Blood samples (100 μL) were collected using capillary at 0.25 h, 0.5 h, 1 h, 2 h, 3 h and 4 h, respectively. After 1 h at room temperature, the serum samples were obtained from the supernatant by centrifugation at 3000 rpm for 15 min. The CST6 content in serum was analyzed with CST6 ELISA kit (Sino Biological, 10438). The peptide content was analyzed with the His-tag ELISA kit (GenScript, L00436) according to the manufacturer's instruction. Blank serum samples from mice without protein/peptide administration were used as control. Standard curves for each protein or peptide were generated with standard samples of known concentrations to calculate the protein/peptide concentration in blood samples. The data for all peptides were fitted with the one-phase decay model using Prizm software (GraphPad Software) to calculate the half-lives.

Acute toxicity assay = assay type: in vivo, mouse; conditions: Balb/c mice, intravenous, death counted after 24 h, n = 5 per group
Experimental: For acute toxicity assays, Balb/c mice (n = 5 per group) were intravenously injected with the indicated protein or peptides at doses of 150, 200, 250, 300, 350 mg/kg. The death of mice was counted after 24 h. The median lethal dose (LD50) was calculated using the Bliss method.

[6] = Tissue distribution by CST6 immunohistochemistry; assay type: in vivo, mouse; conditions: week 5 of 1 mg/kg/day, Fig. S6A
Experimental: We then performed pharmacological evaluation of CST6 protein and peptides.
Supplementary Figure 6. Pharmacological evaluation of CST6 recombinant protein and CA-074.
(A) CST6 immunohistochemistry in various organs at week 5 after administration of 1 mg/kg/day CST6 peptides. The lung section from un-treated mice was used as negative control of the assay. Dotted lines denotes areas of bone metastasis. Scale bar, 150 μm. (B) The body weights of nude mice after treatment of 10 mg/kg CA-074 for 8 consecutive days (n = 9 mice per groups).
(1 picture or pasted object on this page, not shown here)

CTSB = molecular target: T1, CTSB (Mus musculus, UniProt P10605); assay: Intracellular CTSB activity of RAW264.7 after treatment; assay type: cell-based; conditions: 32 nM CST6 protein in medium, lysates after PBS washing; Fig. 2I
T1 construct: endogenous in cells; host or cells: RAW264.7
T1 sequence (P10605 80-339): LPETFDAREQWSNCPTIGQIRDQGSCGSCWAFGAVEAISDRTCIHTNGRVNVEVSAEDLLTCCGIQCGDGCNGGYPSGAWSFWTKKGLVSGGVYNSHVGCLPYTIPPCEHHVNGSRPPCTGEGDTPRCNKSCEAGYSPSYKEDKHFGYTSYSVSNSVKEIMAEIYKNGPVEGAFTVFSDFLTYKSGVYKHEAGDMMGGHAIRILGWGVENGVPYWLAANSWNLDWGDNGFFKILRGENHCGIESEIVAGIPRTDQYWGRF
Experimental: Cathepsins are lysosomal proteases and function only intracellularly in acidic environment. To verify that extracellularly derived CST6 could inhibit the intracellular CTSB activity of osteoclasts, RAW264.7 cells were cultured in the medium containing recombinant CST6 protein and the cell lysates were collected for CTSB activity analysis after phosphate-buffered saline (PBS) washing of the cells. […] Since osteoclasts are active in endocytosis, it is likely that exogenous CST6 is transported into osteoclasts via endocytosis. Indeed, we observed a co-localization of CST6 that entered the cells with the lysosome marker LAMP1 (Fig. S3B). […]
Enzymatic activities of cathepsins were analyzed with the fluorometric kits of CTSB (K147, Biovision) and CTSL (K161, Biovision) according to the manufacturer's protocol. The LGMN activity was analyzed as previously described with minor modifications of the protocol. […] After three freeze-thaw cycles at -80 °C, the cell lysate was centrifuged at 10000 g for 15 min and the supernatant was transferred into a new tube followed by protein quantification. […] After adding 1 μL substrate Z-Ala-Ala-Asn-AMC (I1865, Bachem) into each well with a final concentration of 10 μM, fluorescence measurements were performed every 5 min at 37 °C using a BioTek's Synergy™ Mx Microplate Reader with a 360 nm excitation filter and a 460 nm emission filter. […]

[7] = nude mice with SCP2, 1 mg/kg/day intravenous, n = 10 mice per group

Molecule: CC(C)C[C@H](NC(=O)[C@H](Cc1ccccc1)NC(=O)c1cnccn1)B(O)O [Bortezomib, reference compound]
- body weight of metastasis-bearing mice (SCP2 cells; nude mice with SCP2, 1 mg/kg/day, Fig. 5F, Fig. S5B (week 5)): but not Bortezomib, recovered the body weight of mice

Molecule: CCCNC(=O)[C@H]1O[C@@H]1C(=O)N[C@H](C(=O)N1CCC[C@H]1C(=O)OC)[C@@H](C)CC [CA-074Me]
- osteoclast differentiation of primary bone marrow cells [1]: able to inhibit osteoclast differentiation
- osteoclast differentiation of RAW264.7 cells (RAW264.7 cells [2]; treatment with Z-FY or CA074Me, n = 3 independent experiments, Fig. 2G): able to inhibit osteoclast differentiation
- intracellular SPHK1 protein (SPHK1): stabilized the intracellular SPHK1 protein in a dose-dependent manner

Molecule: CCCNC(=O)[C@H]1O[C@@H]1C(=O)N[C@H](C(=O)N1CCC[C@H]1C(=O)O)[C@@H](C)CC [CA-074]
- body weight of mice (Chronic toxicity assay): caused apparent body weight loss of the mice

Molecule: O=C(N/N=C/c1ccc(O)c(O)c1)c1cc2ccccc2cc1O [Dynasore]
- effect on intracellular accumulation of CST6 (RAW264.7 cells [3]): reduced the intracellular accumulation of CST6 in a dosage-dependent manner

Molecule: C[S+]([O-])c1ccc(-c2nc(-c3ccncc3)c(-c3ccc(F)cc3)[nH]2)cc1 (stereo not drawn) [SB203580, reference compound]
- CM-induced p38 phosphorylation (p38; RAW264.7 with RANKL and CM from CST6-knockdown or control SCP4, opposite to enhancement, Fig. 3K): showed the opposite effect
- CM-induced osteoclast maturation of RAW264.7 (RAW264.7 cells [2]; RAW264.7 with RANKL and CM from CST6-knockdown or control SCP4, opposite to enhancement, Fig. 3L): showed the opposite effect

Molecule: CC(C)(C)Oc1ccc(C[C@H](NC(=O)[C@H](Cc2ccccc2)NC(=O)OCc2ccccc2)C(=O)C=[N+]=[N-])cc1 [Z-FY(t-Bu)-DMK] (Cbz-Phe-Tyr(tBu)-CHN2)
- osteoclast differentiation of primary bone marrow cells [1]: but not the CTSL inhibitor Z-FY(t-Bu)-DMK, was able to inhibit osteoclast differentiation

B1: CST6: human CST6 recombinant protein expressed in E. coli, type 2 cystatin, inhibitor of cysteine proteases (protein, UniProt Q15828 29-149, looked up)
Cystatin-M: RPQERMVGELRDLSPDDPQVQKAAQAAVASYNMGSNSIYYFRDTHIIKAQSQLVAGIKYFLTMEMGSTDCRKTRVTGDHVDLTTCPLAAGAQQEKLRCDFEVLVVPWQNSSQLLKHNCVQM
modifications: His tag
- viability of osteoclasts [4]: did not affect the viability of osteoclasts
- osteoclastogenesis of primary bone marrow cells ([1]; RANKL-containing medium, 5 to 6 days, TRAP staining, indicated concentrations): significantly suppressed RANKL-induced differentiation of bone marrow cells into osteoclasts in a dosage-dependent manner
- bone metastasis (BLI) (SCP2 cells; nude mice pre-inoculated with SCP2, 1 mg/kg/day intravenous, n = 10 mice per group): efficiently alleviated bone metastasis
- osteoclastogenesis and bone destruction in metastases (TRAP+ cells, micro-CT) (SCP2 cells; [7]): reduced osteoclastogenesis and bone destruction
- survival of the mice (SCP2 cells; [7]): extended survival of the mice
- growth of tumor cells (SCP2/SCP4 tumor cells): did not directly affect the growth of tumor cells
- p38 activation (p38; RAW264.7, Fig. 3B): inhibited p38 activation
- Half-life [5]: 10.48 min
- LD50 (Acute toxicity assay; 150-350 mg/kg, Bliss method): 322.00 ± 117.10 mg/kg
- MTD (Acute toxicity assay): 200 mg/kg
- tissue distribution of administrated protein [6]: mainly distributed in liver, kidney, intestine, spleen and bone metastasis foci
- intracellular CTSB activity of RAW264.7 (CTSB): inhibited the intracellular CTSB activity of RAW264.7
- expression of marker genes of osteoclastic differentiation (Caclr, Nfatc1, Acp5, Ctsk, Fos) (RAW264.7 cells [2]; RAW264.7, n = 3 biological repeats, Fig. 1J): downregulated
- osteoclastic differentiation of RAW264.7 cells (RAW264.7 cells [2]; cultured with RANKL, 32 nM human CST6 protein, Fig. 1I): inhibition of osteoclastic differentiation of cells
- intracellular SPHK1 protein (SPHK1): stabilized the intracellular SPHK1 protein in a dose-dependent manner
